Measured values from paper PMC3229523, “Identification of Lactoferricin B Intracellular Targets Using an Escherichia coli Proteome Chip” (PLoS ONE, 2011).
Ends that are not written are not given here. * marks the point of attachment. Biotin = O=C1N[C@H]2[C@H](CS[C@H]2CCCCC(=O)*)N1

What was measured:
Experiment in all cases: peptide or protein array; E. coli proteome chip: purified His-tagged proteins printed in duplicate on Fullmoon slides, blocked with 1% BSA; 10 nM N-terminal biotinylated LfcinB with 1% BSA, room temperature, 1 h; detected with DyLight 649-labeled streptavidin, ratio to DyLight 549-labeled anti-His antibody; ProCAT normalisation, local cut-off; triplicate chips
Settings in all cases: both partners purified
ArgH = molecular target: T1, ArgH (E. coli K-12, UniProt P11447 1-457)
T1 construct: ArgH, E. coli K-12
T1 sequence (looked up): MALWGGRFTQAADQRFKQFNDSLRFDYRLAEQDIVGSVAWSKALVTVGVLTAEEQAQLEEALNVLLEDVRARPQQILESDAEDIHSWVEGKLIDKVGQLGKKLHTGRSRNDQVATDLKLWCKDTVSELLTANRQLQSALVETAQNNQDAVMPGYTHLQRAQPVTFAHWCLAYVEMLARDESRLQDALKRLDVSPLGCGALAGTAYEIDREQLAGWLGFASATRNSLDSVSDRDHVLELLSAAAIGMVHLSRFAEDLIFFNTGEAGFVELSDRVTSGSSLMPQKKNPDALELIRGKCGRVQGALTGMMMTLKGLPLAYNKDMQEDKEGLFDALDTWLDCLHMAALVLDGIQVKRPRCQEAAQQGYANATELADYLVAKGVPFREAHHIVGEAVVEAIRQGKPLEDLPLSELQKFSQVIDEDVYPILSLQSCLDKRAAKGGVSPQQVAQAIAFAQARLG

RpsB = RpsB (E. coli K-12, UniProt P0A7V0 1-241)
HolC = molecular target: T2, HolC (E. coli K-12, UniProt P28905 1-147)
T2 construct: HolC, E. coli K-12

YjgL = molecular target: T3, YjgL (E. coli K-12, UniProt P39336 1-604)
T3 construct: YjgL, E. coli K-12
T3 sequence (looked up): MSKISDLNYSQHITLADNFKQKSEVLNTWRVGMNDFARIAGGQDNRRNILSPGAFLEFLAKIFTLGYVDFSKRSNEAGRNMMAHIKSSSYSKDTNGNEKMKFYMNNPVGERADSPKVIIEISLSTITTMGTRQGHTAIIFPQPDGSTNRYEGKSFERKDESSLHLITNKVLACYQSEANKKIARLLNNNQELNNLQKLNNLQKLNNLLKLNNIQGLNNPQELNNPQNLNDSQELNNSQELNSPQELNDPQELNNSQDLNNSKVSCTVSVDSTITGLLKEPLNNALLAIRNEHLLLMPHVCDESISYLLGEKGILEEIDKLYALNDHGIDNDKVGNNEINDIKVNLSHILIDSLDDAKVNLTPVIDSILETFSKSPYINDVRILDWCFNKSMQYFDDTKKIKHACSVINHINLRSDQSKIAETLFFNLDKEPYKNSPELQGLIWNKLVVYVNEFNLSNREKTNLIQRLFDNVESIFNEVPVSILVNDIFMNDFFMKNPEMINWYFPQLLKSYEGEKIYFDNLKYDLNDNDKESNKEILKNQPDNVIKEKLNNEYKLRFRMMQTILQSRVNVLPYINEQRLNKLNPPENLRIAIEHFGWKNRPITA

RhaR = molecular target: T4, RhaR (E. coli K-12, UniProt P09378 1-282)
T4 construct: RhaR, E. coli K-12
T4 sequence (looked up): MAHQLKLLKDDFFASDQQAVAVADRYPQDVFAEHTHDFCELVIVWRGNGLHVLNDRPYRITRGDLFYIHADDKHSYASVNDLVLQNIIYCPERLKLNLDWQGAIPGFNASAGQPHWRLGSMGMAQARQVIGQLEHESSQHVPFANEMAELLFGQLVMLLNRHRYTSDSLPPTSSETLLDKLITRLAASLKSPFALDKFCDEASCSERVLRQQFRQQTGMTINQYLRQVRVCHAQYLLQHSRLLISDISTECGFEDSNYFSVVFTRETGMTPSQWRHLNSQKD

HemC = molecular target: T5, HemC (E. coli K-12, UniProt P06983 1-313)
T5 construct: HemC, E. coli K-12
T5 sequence (looked up): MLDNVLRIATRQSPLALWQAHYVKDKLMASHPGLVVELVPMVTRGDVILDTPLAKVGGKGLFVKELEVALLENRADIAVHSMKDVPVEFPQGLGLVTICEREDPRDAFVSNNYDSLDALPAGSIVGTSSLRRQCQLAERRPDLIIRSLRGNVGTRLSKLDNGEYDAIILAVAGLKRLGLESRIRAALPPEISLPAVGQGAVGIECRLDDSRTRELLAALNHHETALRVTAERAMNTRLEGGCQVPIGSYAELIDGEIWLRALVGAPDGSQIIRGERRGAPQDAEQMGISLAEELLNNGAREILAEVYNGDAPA

Measured: binding result

T2 sequence (P28905 whole entry): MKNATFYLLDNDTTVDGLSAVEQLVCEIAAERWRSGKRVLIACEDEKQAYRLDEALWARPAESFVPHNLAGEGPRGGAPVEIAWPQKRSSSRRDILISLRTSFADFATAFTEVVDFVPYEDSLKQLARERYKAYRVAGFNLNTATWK

B1: N-terminal biotinylated Lactoferricin B (peptide, UniProt P24627 36-60, looked up)
peptide: Biotin-FKCRRWQWRMKKLGAPSITCVRRAF
modifications: ends and bridges not checked
notes: lactoferricin B (LfcinB), cationic antimicrobial peptide of 25 amino acids; also called biotinylated LfcinB; biotin-labeled LfcinB; source: bought: Kelowna Inc
binds: all assays above
